B1: iPS:327686 (bispecific antibody, human IgG1, kappa, N297G)
light 1: not shown
heavy 1: not shown
light 2: EIVLTQSPGTLSLSPGERATLSCRASQSVSSGYLTWYQQKPGQAPRLLIYGASSRATGIPDRFSGSGSGTDFTLTISRLEPEDFAVYYCQQYGNSLSRFGQGTKLEIKRTVAAPSVFIFPPSDEQLKSGTASVVCLLNNFYPREAKVQWKVDNALQSGNSQESVTEQDSKDSTYSLKSTLTLSKADYEKHKVYACEVTHQGLSSPVTKSFNRGEC
heavy 2: not shown
B2: iPS:327687 (bispecific antibody, human IgG1, kappa, N297G)
light 1: DIQLTQSPSFLSASVGDRVTITCRASQSIGRSLHWYQQKPGKAPKLLIKYASQSLSGVPSRFSGSGSGTEFTLTISSLQPEDFATYYCHQSSRLPFTFGPGTKVDIKRTVAAPSVFIFPPSDEQLKSGTASVVCLLNNFYPREAKVQWKVDNALQSGNSQESVTEQDSKDSTYSLESTLTLSKADYEKHKVYACEVTHQGLSSPVTKSFNRGEC
heavy 1: not shown
light 2: B1 light 2
heavy 2: not shown
B3: iPS:327689 (bispecific antibody, human IgG1, kappa, lambda, N297G)
light 1: not shown
heavy 1: not shown
light 2: QSVLTQPPSVSAAPGQKVTISCSGSSSNIGNNYVSWYQQLPGTAPKLLIYDNNKRPSGIPDRFSGSKSGTSTTLGITGLQTGDEADYYCGTWDSRLSAVVFGGGTKLTVLGQPKANPTVTLFPPSSEELQANKATLVCLISDFYPGAVTVAWKADGSPVKAGVETTKPSKQSNNKYAAKSYLSLTPEQWKSHRSYSCQVTHEGSTVEKTVAPTECS
heavy 2: QVQLVESGGGVVQPGRSLRLSCAASGFTFSSFGMHWVRQAPGKGLEWVAVISFDGSIKYSVDSVKGRFTISRDNSKNTLFLQMNSLRAEDTAVYYCARDRLNYYESSGYYHYKYYGMAVWGQGTTVTVSSASTKGPSVFPLAPSSKSTSGGTAALGCLVKDYFPEPVTVSWNSGALTSGVHTFPAVLQSSGLYSLESVVTVPSSSLGTQTYICNVNHKPSNTKVDKKVEPKSCDKTHTCPPCPAPELLGGPSVFLFPPKPKDTLMISRTPEVTCVVVDVSHEDPEVKFNWYVDGVEVHNAKTKPCEEQYGSTYRCVSVLTVLHQDWLNGKEYKCKVSNKALPAPIEKTISKAKGQPREPQVYTLPPSRKEMTKNQVSLTCLVKGFYPSDIAVEWESNGQPENNYKTTPPVLKSDGSFFLYSKLTVDKSRWQQGNVFSCSVMHEALHNHYTQKSLSLSPGK
B4: iPS:327691 (bispecific antibody, human IgG1, kappa, lambda, N297G)
light 1: B2 light 1
heavy 1: not shown
light 2: B3 light 2
heavy 2: B3 heavy 2
B5: iPS:327690 (bispecific antibody, human IgG1, kappa, lambda, N297G)
light 1: not shown
heavy 1: not shown
light 2: B3 light 2
heavy 2: B3 heavy 2
B6: iPS:328001 (bispecific antibody, human IgG2, kappa, lambda)
light 1: EIVLTQSPATLSLSPGERATLSCRASQSVGRSLHWYQQKPGQAPRLLIKYASQSLSGIPARFSGSGSGTDFTLTISSLEPEDFAVYYCHQSSRLPFTFGPGTKVDIKRTVAAPSVFIFPPSDEQLKSGTASVVCLLNNFYPREAKVQWKVDNALQSGNSQESVTEQDSKDSTYSLESTLTLSKADYEKHKVYACEVTHQGLSSPVTKSFNRGEC
heavy 1: QVQLVESGGGVVQPGRSLRLSCAASGFTFSRFAMHWVRQAPGKGLEWVAVISYDGGNKYYAESVKGRFTISRDNSKNTLYLQMNSLRAEDTALFYCARGYDVLTGYPDYWGQGTLVTVSSASTKGPSVFPLAPCSRSTSESTAALGCLVKDYFPEPVTVSWNSGALTSGVHTFPAVLQSSGLYSLKSVVTVPSSNFGTQTYTCNVDHKPSNTKVDKTVERKCCVECPPCPAPPVAGPSVFLFPPKPKDTLMISRTPEVTCVVVDVSHEDPEVQFNWYVDGVEVHNAKTKPREEQFNSTFRVVSVLTVVHQDWLNGKEYKCKVSNKGLPAPIEKTISKTKGQPREPQVYTLPPSREEMTKNQVSLTCLVDGFYPSDIAVEWESNGQPENNYDTTPPMLDSDGSFFLYSDLTVDKSRWQQGNVFSCSVMHEALHNHYTQKSLSLSPGK
light 2: B3 light 2
heavy 2: QVQLVESGGGVVQPGRSLRLSCAASGFTFSSFGMHWVRQAPGKGLEWVAVISFDGSIKYSVDSVKGRFTISRDNSKNTLFLQMNSLRAEDTAVYYCARDRLNYYDSSGYYHYKYYGMAVWGQGTTVTVSSASTKGPSVFPLAPCSRSTSESTAALGCLVKDYFPEPVTVSWNSGALTSGVHTFPAVLQSSGLYSLESVVTVPSSNFGTQTYTCNVDHKPSNTKVDKTVERKCCVECPPCPAPPVAGPSVFLFPPKPKDTLMISRTPEVTCVVVDVSHEDPEVQFNWYVDGVEVHNAKTKPREEQFNSTFRVVSVLTVVHQDWLNGKEYKCKVSNKGLPAPIEKTISKTKGQPREPQVYTLPPSRKKMTKNQVSLTCLVKGFYPSDIAVEWESNGQPENNYKTTPPMLKSDGSFFLYSKLTVDKSRWQQGNVFSCSVMHEALHNHYTQKSLSLSPGK

Tests used:
[1] = molecular target: human CGRP receptor (human, UniProt Q16602 23-461; O60894 27-148); test: cell-based or functional assay
[2] = molecular target: T1, human PAC1 receptor (human, UniProt P41586 21-468); test: cell-based or functional assay
T1 sequence: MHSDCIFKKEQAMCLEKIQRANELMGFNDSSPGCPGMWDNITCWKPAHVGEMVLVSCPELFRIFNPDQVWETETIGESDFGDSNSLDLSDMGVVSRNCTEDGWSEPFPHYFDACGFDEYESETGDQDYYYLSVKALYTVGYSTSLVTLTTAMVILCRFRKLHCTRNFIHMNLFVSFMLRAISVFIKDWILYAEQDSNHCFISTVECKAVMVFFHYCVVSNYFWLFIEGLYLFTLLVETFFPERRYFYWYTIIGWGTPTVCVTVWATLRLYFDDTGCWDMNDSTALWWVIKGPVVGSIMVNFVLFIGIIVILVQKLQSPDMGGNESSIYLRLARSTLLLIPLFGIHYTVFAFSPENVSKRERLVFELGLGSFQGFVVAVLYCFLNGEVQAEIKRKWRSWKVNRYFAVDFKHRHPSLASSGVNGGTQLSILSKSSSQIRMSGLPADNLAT

human CGRP receptor, sequence (Q16602 23-461 limits assumed, chain 1 of 2): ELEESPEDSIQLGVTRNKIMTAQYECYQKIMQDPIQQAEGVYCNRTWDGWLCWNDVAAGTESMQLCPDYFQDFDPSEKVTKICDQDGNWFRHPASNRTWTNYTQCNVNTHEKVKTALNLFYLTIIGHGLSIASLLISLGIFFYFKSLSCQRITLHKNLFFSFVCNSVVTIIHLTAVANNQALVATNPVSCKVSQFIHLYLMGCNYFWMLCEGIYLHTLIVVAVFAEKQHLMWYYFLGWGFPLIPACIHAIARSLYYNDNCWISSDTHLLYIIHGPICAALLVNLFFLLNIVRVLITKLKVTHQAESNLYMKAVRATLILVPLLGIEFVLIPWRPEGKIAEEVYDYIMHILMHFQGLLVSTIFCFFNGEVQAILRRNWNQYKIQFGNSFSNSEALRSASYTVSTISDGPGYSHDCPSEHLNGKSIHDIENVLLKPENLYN
human CGRP receptor, sequence (O60894 27-148 limits assumed, chain 2 of 2): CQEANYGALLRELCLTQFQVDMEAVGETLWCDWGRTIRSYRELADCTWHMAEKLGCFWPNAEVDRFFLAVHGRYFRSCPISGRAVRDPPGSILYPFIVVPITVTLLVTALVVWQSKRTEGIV

| Binder | % inhibition of human CGRPR [1] [%] | % inhibition of human PAC1 [2] [%] |
| --- | --- | --- |
| B1 | 87 | 69 |
| B2 | 91 | 62 |
| B3 | 78 | 86 |
| B4 | 73 | 25 |
| B5 | 80 | 50 |
| B6 | 65 | 95 |

Reference: patent US20170306033A1 (Amgen, published 2017)
